Measurements as given in patent US20190269750A1, “PHARMACEUTICAL COMPOSITION AND METHOD OF TREATING FEMALE SEXUAL DYSFUNCTIONS” ("IVIX" Ltd., priority 2016, published 2019).
No end group written: not given here.

Assay: Distribution of tritium-labelled pentapeptide after intranasal administration
Assay type: in vivo
Settings: rats, tritium label
Experimental: The study to determine how the medication of the invention is distributed through the body and reaches the brain was conducted on rats. Specially prepared rats were intranasally administered the pharmaceutical composition containing the pentapeptide of the invention radioactively-labelled with tritium. The animals were then euthanized at certain time intervals to be able to assess the biodistribution of the peptide in the brain and its transportation path.

pentapeptide of the invention radioactively-labelled with tritium: pentapeptide Thr-Lys-Pro-Arg-Pro (SEQ ID NO: 5) labelled with tritium, given intranasally in a pharmaceutical composition (TKPRP; also: tritium label, position not given here)
biodistribution: delivery to the brain: a significant part of the medication reached the brain undegraded | biodistribution: site of detection: detected in the olfactory bulbs and other parts of the brain
